From patent US20090209453A1 (UNIVERSITY OF MEDICINE AND DENTISTRY OF NEW JERSEY, published 2009) come the findings set out here.

The target in experiment [1] is T1, rat LH receptor (rat, UniProt P16235 27-700).
T1 construct: whole, on cells; CHO cells engineered to (over)express the rat LH receptor; also called rat lutropin receptor
In words: 125I-hCG competition on rat LH receptors.

For experiment [2], the target named is T1, rat LH receptor. In words: competition with radioiodinated hCG for rat LH receptors.

T1 sequence (P16235 27-700): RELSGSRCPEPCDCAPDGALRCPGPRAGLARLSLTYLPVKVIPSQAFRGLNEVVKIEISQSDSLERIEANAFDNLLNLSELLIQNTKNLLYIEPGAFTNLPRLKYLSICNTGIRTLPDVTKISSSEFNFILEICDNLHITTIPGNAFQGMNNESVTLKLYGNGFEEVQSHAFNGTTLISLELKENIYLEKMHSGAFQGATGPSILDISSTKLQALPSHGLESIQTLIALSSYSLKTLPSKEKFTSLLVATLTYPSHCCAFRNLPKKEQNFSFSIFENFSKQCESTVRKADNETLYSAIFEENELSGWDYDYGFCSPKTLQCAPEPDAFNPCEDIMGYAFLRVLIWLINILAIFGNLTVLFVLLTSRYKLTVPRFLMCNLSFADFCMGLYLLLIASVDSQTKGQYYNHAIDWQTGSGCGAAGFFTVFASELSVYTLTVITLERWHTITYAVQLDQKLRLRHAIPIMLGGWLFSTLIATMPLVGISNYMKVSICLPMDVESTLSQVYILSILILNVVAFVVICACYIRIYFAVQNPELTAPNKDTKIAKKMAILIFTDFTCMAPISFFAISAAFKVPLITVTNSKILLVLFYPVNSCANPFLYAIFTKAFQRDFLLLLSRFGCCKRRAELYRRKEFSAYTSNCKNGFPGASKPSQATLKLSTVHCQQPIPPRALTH

B1: pMB2472+pMB2672 heterodimer (crosslink α86-β106) (ligand)
alpha: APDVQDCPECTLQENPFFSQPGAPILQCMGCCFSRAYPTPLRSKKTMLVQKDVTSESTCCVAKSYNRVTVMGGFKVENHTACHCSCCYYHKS
beta: SKEPLRPRCRPINATLAVEKEGCPVCITVNTTICAGYCPTMTRVLQGVLPALPQVVCNYRDVRFESIRLPGCPRGVNPVVSYAVALSCQCALCRRSTTDCGGPKDC
modifications: Intersubunit disulfide between alpha Cys86 and beta Cys106 (the beta C-terminus). N-linked glycans remain, except at alpha position 52 (N52D). Beta Cys26 is free.
notes: The text says that pMB1244 or pMB2472 was the α-subunit construct; also called pMB2472 and pMB2672
As to B1, the binding result in the experiment with rat LH receptor [1] is “binds”.

B2: pRM917+pMB2545 crosslinked heterodimer (ligand)
alpha: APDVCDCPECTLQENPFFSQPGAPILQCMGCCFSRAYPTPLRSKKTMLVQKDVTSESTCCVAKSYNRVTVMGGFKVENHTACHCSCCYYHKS
beta: SRPCCRPINATLAVEKEGCPVAITVNTTICAGYCPTMTRVLQGVLPALPQVVCNYRDVRFESIRLPGCPRGVNPVVSYAVALSCQCALCRRSTTDCGC
modifications: Potential intersubunit disulfides α5-β8 and α86-β102; N-linked glycans on both subunits (none at α52).
notes: Potential disulfides α5-β8 and α86-β102; also called pRM917 and pMB2545; copies: 1 + 1
With B2, the binding result with rat LH receptor [2] was “binds”.

B3: pMB2472+pMB2673 heterodimer (crosslink α86-β108) (ligand)
alpha: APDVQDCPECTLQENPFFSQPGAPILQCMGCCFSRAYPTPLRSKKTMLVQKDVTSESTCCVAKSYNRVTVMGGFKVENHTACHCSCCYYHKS
beta: SKEPLRPRCRPINATLAVEKEGCPVCITVNTTICAGYCPTMTRVLQGVLPALPQVVCNYRDVRFESIRLPGCPRGVNPVVSYAVALSCQCALCRRSTTDCGGPKDHPC
modifications: Intersubunit disulfide between alpha Cys86 and beta Cys108 (the beta C-terminus). N-linked glycans remain, except at alpha position 52 (N52D). Beta Cys26 is free.
notes: The text says that pMB1244 or pMB2472 was the α-subunit construct; also called pMB2472 and pMB2673
Take B3: the binding result with rat LH receptor [1] is listed as “binds”.
